Assay results as given in patent US7056679 (ANTYRA, dated 2006).

T1: DGI-2 polypeptide (UniProt Q15004 1-111, limits assumed)
T1 construct: Soluble recombinant protein coated at 500 ng/well; vector tag of pIVEX2.3-MCS not described for this construct; also called KIAA0101
T1 sequence (looked up): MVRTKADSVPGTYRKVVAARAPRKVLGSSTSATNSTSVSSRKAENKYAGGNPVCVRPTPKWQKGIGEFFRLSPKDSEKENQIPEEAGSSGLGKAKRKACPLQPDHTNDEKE


What follows are binders tested against T2, lactate dehydrogenase (LDH) (assay: phage ELISA).
T2 construct: Coated at 500 ng/well as non-specific target; also called LDH polypeptide
Protocol: (§1) For analysis of individual target binders, colonies were picked and phage prepared as described above using helper phage, M13KO7. Ninety-six-well microtiter plates were coated with 500 ng/well of specific target protein, 500 ng/well lactate dehydrogenase (LDH) irrelevant or non-specific target, 500 ng/well of positive control antibody raised against ETAG, and negative control of non-fat milk powder-PBS 2% at 4° C. overnight. Plates were then blocked with 350 microliters/well PBS containing 2% non-fat milk for 1 hr at room temperature. One hundred microliters per well of phage from isolated clones were added and plates were incubated at room temperature for 2 hr after centrifuging samples for 20 minutes at 3500 rpm at 4° C. The phage solution was then removed, and the wells were washed three times with PBS at room temperature. Antibody raised against M13 conjugated to horseradish peroxidase (Pharmacia) was diluted 1:3000 in PBS-Tween and added to each well (100 µl/well). Incubation was for 1 hr at room temperature, followed by washing with PBS-(0.5%) Tween 3 times as described. Color was developed by addition of ABTS solution (100 µl/well; Boehringer, Indianapolis, Ind.). Plates were analyzed at 405 nm. A clone was considered "positive" if the $A405$ of the well was $\geq$2-fold over background.

First: SVTISTSCRTGCPAGYLRRDAAAGAPVPYPDPLEPRP [DGI-2-20F-PP-D2]
Second: GGSLPVKSGQLVTCCTSKGGAAAGAPVPYPDPLEPRP [DGI-2-20F-PP-F5]
The “LDH (OD)” value of the first is lower: 0.7 OD for the first, 0.9 OD for the second.

Going from EGQRVVFLFGALVAGLCWRDRAAAGAPVPYPDPLEPRP [DGI-2-20F-PP-F3] to VTGTRFRGFAVACVRMGTWHAAAGAPVPYPDPLEPRP [DGI-2-20F-PP-F2], the “LDH (OD)” value falls from 1.1 OD to 1 OD.

Compared with VVGYAQGDGLEGGLGSSRDGSAAAGAPVPYPDPLEPRP [DGI-2-20F-PP-D8], SAFGCPLPRALGGGGARFYAAAAGAPVPYPDPLEPRP [DGI-2-20F-PP-E11] is lower in “LDH (OD)” value: 1.1 OD for the first, 0.9 OD for the second.

Compared with KVWGCGARRGWERLGHLNQVAAAGAPVPYPDPLEPRP [DGI-2-20F-PP-B10], TFTRDVAGPAVSFVRLHSWNAAAGAPVPYPDPLEPRP [DGI-2-20F-PP-A9] is higher in “LDH (OD)” value: 0.8 OD for the first, 1.2 OD for the second.

CCAWNGVGVGGLGWRVVVGPAAAGAPVPYPDPLEPRP [DGI-2-20F-PP-H4] and VGHLLSRCAHHSPGMGASPYGAAAGAPVPYPDPLEPRP [DGI-2-20F-PP-B11] are the same in “LDH (OD)” value: 1 OD for the first, 1 OD for the second.

Compared with GLYQRGLAPRCRGERFGVRNAAAGAPVPYPDPLEPRP [DGI-2-20F-PP-C2], SLLCVVCRPVSGGRALGGVPAAAGAPVPYPDPLEPRP [DGI-2-20F-PP-B42] is lower in “LDH (OD)” value: 1.1 OD for the first, 1 OD for the second.

Going from FRVALLSVSAGPCEGSGNTAAAGAPVPYPDPLEPRP [DGI-2-20F-PP-H7] to LLLPVRWRDAQPRSLLMEWIAAAGAPVPYPDPLEPRP [DGI-2-20F-PP-F8], the “LDH (OD)” value rises from 0.8 OD to 1.1 OD.

CYLSRLFRSGQGIGQFGHVEAAAGAPVPYPDPLEPRP [DGI-2-20F-PP-A82] and RQRSGGRWVVDRVTRVASTSPAAAGAPVPYPDPLEPRP [DGI-2-20F-PP-B12] are the same in “LDH (OD)” value: 1.1 OD for the first, 1.1 OD for the second.

Compared with LFRFSGTGMASLPCVGWHLVAAAGAPVPYPDPLEPRP [DGI-2-20F-PP-B6], WVVALRRIRLGLRRGVECLLAAAGAPVPYPDPLEPRP [DGI-2-20F-PP-D5] is higher in “LDH (OD)” value: 1 OD for the first, 1.2 OD for the second.

These binders were tested against T1, DGI-2 polypeptide (assay: phage ELISA).
Protocol: as §1

First: SVTISTSCRTGCPAGYLRRDAAAGAPVPYPDPLEPRP [DGI-2-20F-PP-D2]
Second: GGSLPVKSGQLVTCCTSKGGAAAGAPVPYPDPLEPRP [DGI-2-20F-PP-F5]
The “DGI-2 (OD)” value of the first is lower: 2.2 OD for the first, 2.3 OD for the second.

Compared with EGQRVVFLFGALVAGLCWRDRAAAGAPVPYPDPLEPRP [DGI-2-20F-PP-F3], VTGTRFRGFAVACVRMGTWHAAAGAPVPYPDPLEPRP [DGI-2-20F-PP-F2] is lower in “DGI-2 (OD)” value: 2.6 OD for the first, 2.4 OD for the second.

Compared with VVGYAQGDGLEGGLGSSRDGSAAAGAPVPYPDPLEPRP [DGI-2-20F-PP-D8], SAFGCPLPRALGGGGARFYAAAAGAPVPYPDPLEPRP [DGI-2-20F-PP-E11] is lower in “DGI-2 (OD)” value: 2.3 OD for the first, 2 OD for the second.

Going from KVWGCGARRGWERLGHLNQVAAAGAPVPYPDPLEPRP [DGI-2-20F-PP-B10] to TFTRDVAGPAVSFVRLHSWNAAAGAPVPYPDPLEPRP [DGI-2-20F-PP-A9], the “DGI-2 (OD)” value rises from 1.9 OD to 2.7 OD.

First: CCAWNGVGVGGLGWRVVVGPAAAGAPVPYPDPLEPRP [DGI-2-20F-PP-H4]
Second: VGHLLSRCAHHSPGMGASPYGAAAGAPVPYPDPLEPRP [DGI-2-20F-PP-B11]
The “DGI-2 (OD)” value of the first is lower: 2.1 OD for the first, 2.6 OD for the second.

Going from GLYQRGLAPRCRGERFGVRNAAAGAPVPYPDPLEPRP [DGI-2-20F-PP-C2] to SLLCVVCRPVSGGRALGGVPAAAGAPVPYPDPLEPRP [DGI-2-20F-PP-B42], the “DGI-2 (OD)” value falls from 2.7 OD to 2.4 OD.

First: FRVALLSVSAGPCEGSGNTAAAGAPVPYPDPLEPRP [DGI-2-20F-PP-H7]
Second: LLLPVRWRDAQPRSLLMEWIAAAGAPVPYPDPLEPRP [DGI-2-20F-PP-F8]
The “DGI-2 (OD)” value of the first is lower: 1.8 OD for the first, 2 OD for the second.

Going from CYLSRLFRSGQGIGQFGHVEAAAGAPVPYPDPLEPRP [DGI-2-20F-PP-A82] to RQRSGGRWVVDRVTRVASTSPAAAGAPVPYPDPLEPRP [DGI-2-20F-PP-B12], the “DGI-2 (OD)” value falls from 2.5 OD to 2.3 OD.

Compared with LFRFSGTGMASLPCVGWHLVAAAGAPVPYPDPLEPRP [DGI-2-20F-PP-B6], WVVALRRIRLGLRRGVECLLAAAGAPVPYPDPLEPRP [DGI-2-20F-PP-D5] is higher in “DGI-2 (OD)” value: 2.5 OD for the first, 2.7 OD for the second.

Compared with SVTISTSCRTGCPAGYLRRDAAAGAPVPYPDPLEPRP [DGI-2-20F-PP-D2], GGSLPVKSGQLVTCCTSKGGAAAGAPVPYPDPLEPRP [DGI-2-20F-PP-F5] is lower in DGI-2/LDH: 3.1 ratio for the first, 2.5 ratio for the second.

Compared with EGQRVVFLFGALVAGLCWRDRAAAGAPVPYPDPLEPRP [DGI-2-20F-PP-F3], VTGTRFRGFAVACVRMGTWHAAAGAPVPYPDPLEPRP [DGI-2-20F-PP-F2] is higher in DGI-2/LDH: 2.2 ratio for the first, 2.5 ratio for the second.

VVGYAQGDGLEGGLGSSRDGSAAAGAPVPYPDPLEPRP [DGI-2-20F-PP-D8] and SAFGCPLPRALGGGGARFYAAAAGAPVPYPDPLEPRP [DGI-2-20F-PP-E11] are the same in DGI-2/LDH: 2.2 ratio for the first, 2.2 ratio for the second.

Going from KVWGCGARRGWERLGHLNQVAAAGAPVPYPDPLEPRP [DGI-2-20F-PP-B10] to TFTRDVAGPAVSFVRLHSWNAAAGAPVPYPDPLEPRP [DGI-2-20F-PP-A9], the DGI-2/LDH falls from 2.4 ratio to 2.3 ratio.

First: CCAWNGVGVGGLGWRVVVGPAAAGAPVPYPDPLEPRP [DGI-2-20F-PP-H4]
Second: VGHLLSRCAHHSPGMGASPYGAAAGAPVPYPDPLEPRP [DGI-2-20F-PP-B11]
The DGI-2/LDH of the first is lower: 2.2 ratio for the first, 2.7 ratio for the second.

GLYQRGLAPRCRGERFGVRNAAAGAPVPYPDPLEPRP [DGI-2-20F-PP-C2] and SLLCVVCRPVSGGRALGGVPAAAGAPVPYPDPLEPRP [DGI-2-20F-PP-B42] are the same in DGI-2/LDH: 2.5 ratio for the first, 2.5 ratio for the second.

Compared with FRVALLSVSAGPCEGSGNTAAAGAPVPYPDPLEPRP [DGI-2-20F-PP-H7], LLLPVRWRDAQPRSLLMEWIAAAGAPVPYPDPLEPRP [DGI-2-20F-PP-F8] is lower in DGI-2/LDH: 2.1 ratio for the first, 1.9 ratio for the second.

Going from CYLSRLFRSGQGIGQFGHVEAAAGAPVPYPDPLEPRP [DGI-2-20F-PP-A82] to RQRSGGRWVVDRVTRVASTSPAAAGAPVPYPDPLEPRP [DGI-2-20F-PP-B12], the DGI-2/LDH falls from 2.3 ratio to 2.2 ratio.

Going from LFRFSGTGMASLPCVGWHLVAAAGAPVPYPDPLEPRP [DGI-2-20F-PP-B6] to WVVALRRIRLGLRRGVECLLAAAGAPVPYPDPLEPRP [DGI-2-20F-PP-D5], the DGI-2/LDH falls from 2.6 ratio to 2.3 ratio.

The binders below were run against T3, antibody raised against ETAG (assay: phage ELISA).
T3 construct: Coated at 500 ng/well; also called E-tag antibody
Protocol: as §1

Compared with SVTISTSCRTGCPAGYLRRDAAAGAPVPYPDPLEPRP [DGI-2-20F-PP-D2], GGSLPVKSGQLVTCCTSKGGAAAGAPVPYPDPLEPRP [DGI-2-20F-PP-F5] is lower in “ETAG (OD)” value: 30.8 OD for the first, 16.3 OD for the second.

Going from EGQRVVFLFGALVAGLCWRDRAAAGAPVPYPDPLEPRP [DGI-2-20F-PP-F3] to VTGTRFRGFAVACVRMGTWHAAAGAPVPYPDPLEPRP [DGI-2-20F-PP-F2], the “ETAG (OD)” value falls from 18.7 OD to 1.9 OD.

First: VVGYAQGDGLEGGLGSSRDGSAAAGAPVPYPDPLEPRP [DGI-2-20F-PP-D8]
Second: SAFGCPLPRALGGGGARFYAAAAGAPVPYPDPLEPRP [DGI-2-20F-PP-E11]
The “ETAG (OD)” value of the first is lower: 2.6 OD for the first, 15.2 OD for the second.

Compared with KVWGCGARRGWERLGHLNQVAAAGAPVPYPDPLEPRP [DGI-2-20F-PP-B10], TFTRDVAGPAVSFVRLHSWNAAAGAPVPYPDPLEPRP [DGI-2-20F-PP-A9] is higher in “ETAG (OD)” value: 27.1 OD for the first, 40.8 OD for the second.

First: CCAWNGVGVGGLGWRVVVGPAAAGAPVPYPDPLEPRP [DGI-2-20F-PP-H4]
Second: VGHLLSRCAHHSPGMGASPYGAAAGAPVPYPDPLEPRP [DGI-2-20F-PP-B11]
The “ETAG (OD)” value of the first is lower: 32.9 OD for the first, 40.8 OD for the second.

First: GLYQRGLAPRCRGERFGVRNAAAGAPVPYPDPLEPRP [DGI-2-20F-PP-C2]
Second: SLLCVVCRPVSGGRALGGVPAAAGAPVPYPDPLEPRP [DGI-2-20F-PP-B42]
The “ETAG (OD)” value of the first is lower: 6 OD for the first, 21.5 OD for the second.

Compared with FRVALLSVSAGPCEGSGNTAAAGAPVPYPDPLEPRP [DGI-2-20F-PP-H7], LLLPVRWRDAQPRSLLMEWIAAAGAPVPYPDPLEPRP [DGI-2-20F-PP-F8] is higher in “ETAG (OD)” value: 3.7 OD for the first, 7.6 OD for the second.

Compared with CYLSRLFRSGQGIGQFGHVEAAAGAPVPYPDPLEPRP [DGI-2-20F-PP-A82], RQRSGGRWVVDRVTRVASTSPAAAGAPVPYPDPLEPRP [DGI-2-20F-PP-B12] is lower in “ETAG (OD)” value: 16.5 OD for the first, 1.9 OD for the second.

First: LFRFSGTGMASLPCVGWHLVAAAGAPVPYPDPLEPRP [DGI-2-20F-PP-B6]
Second: WVVALRRIRLGLRRGVECLLAAAGAPVPYPDPLEPRP [DGI-2-20F-PP-D5]
The “ETAG (OD)” value of the first is higher: 37 OD for the first, 33.6 OD for the second.
